Source: paper PMC2946844

T1: 1xMBD-GFP (UniProt Q9Z2E2 1-75)
T1 sequence: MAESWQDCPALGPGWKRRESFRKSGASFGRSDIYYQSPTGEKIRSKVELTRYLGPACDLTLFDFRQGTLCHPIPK

B1: o_o_m/m_m_m (dsDNA)
DNA 1: TTTGCGGTCCGCTGCCCGACCC
DNA 2: GGGTCGGGCAGCGGACCGCAAA
modifications: strand 1 5mC17; strand 2 5mC5,5mC12,5mC17
B2: m_o_o/m_o_o (dsDNA)
DNA 1: TTTGCGGTCCGCTGCCCGACCC
DNA 2: GGGTCGGGCAGCGGACCGCAAA
modifications: strand 1 5mC5; strand 2 5mC17
B3: m_o_o*/m_o_o (dsDNA)
DNA 1: GTAGTTTGCGGTCCGCTGCCCGACC
DNA 2: GGGTCGGGCAGCGGACCGCAAA
modifications: strand 1 5mC9; strand 2 5mC17
B4: o_m_o/m_o_o (dsDNA)
DNA 1: TTTGCGGTCCGCTGCCCGACCC
DNA 2: GGGTCGGGCAGCGGACCGCAAA
modifications: strand 1 5mC10; strand 2 5mC17
B5: o_o_o/m_o_o (dsDNA)
DNA 1: TTTGCGGTCCGCTGCCCGACCC
DNA 2: GGGTCGGGCAGCGGACCGCAAA
modifications: strand 2 5mC17
B6: o_m_o_o/m_m_o_o (dsDNA)
DNA 1: GAAGTCAACAGGACGGACGCCGCGCAA
DNA 2: CTCTTTCTTTGCGCGGCGTCCGTCCTGTTGACTTCCTCT
modifications: strand 1 5mC18; strand 2 5mC17,5mC21
B7: o_o_o_m/m_m_o_o (dsDNA)
DNA 1: GAAGTCAACAGGACGGACGCCGCGCAA
DNA 2: CTCTTTCTTTGCGCGGCGTCCGTCCTGTTGACTTCCTCT
modifications: strand 1 5mC23; strand 2 5mC17,5mC21
B8: o_o_m_o/m_m_o_o (dsDNA)
DNA 1: GAAGTCAACAGGACGGACGCCGCGCAA
DNA 2: CTCTTTCTTTGCGCGGCGTCCGTCCTGTTGACTTCCTCT
modifications: strand 1 5mC21; strand 2 5mC17,5mC21

What follows are binders tested against T1, 1xMBD-GFP (assay: SPR).
B1 showed a Kd of 189 ± 1 nM.

Target: T1, 1xMBD-GFP
Experiment: SPR
Remark: another data set of the same source
B1 showed a Kd of 209 ± 2 nM.

Target: T1, 1xMBD-GFP
Experiment: SPR
Remark: another data set of the same source
Work on B2 yielded a Kd of 4.2 ± 0.04 µM.
Work on B3 yielded a Kd of 0.87 ± 0.01 µM.
B4 showed a Kd of 8 ± 0.1 µM.
Work on B5 yielded a Kd of 48 ± 2 µM.
B6 gave a Kd of 0.377 ± 0.007 µM.
Binder B7 has a Kd of 3.94 ± 0.06 µM.
Work on B8 yielded a Kd of 4.97 ± 0.07 µM.
